Reference: publication PMC3413146 (Nucleic Acids Research, 2012)

Biological target: T1, RECQL4 (endogenous) (human (endogenous in HeLa), UniProt O94761 1-1208)
T1 sequence (looked up): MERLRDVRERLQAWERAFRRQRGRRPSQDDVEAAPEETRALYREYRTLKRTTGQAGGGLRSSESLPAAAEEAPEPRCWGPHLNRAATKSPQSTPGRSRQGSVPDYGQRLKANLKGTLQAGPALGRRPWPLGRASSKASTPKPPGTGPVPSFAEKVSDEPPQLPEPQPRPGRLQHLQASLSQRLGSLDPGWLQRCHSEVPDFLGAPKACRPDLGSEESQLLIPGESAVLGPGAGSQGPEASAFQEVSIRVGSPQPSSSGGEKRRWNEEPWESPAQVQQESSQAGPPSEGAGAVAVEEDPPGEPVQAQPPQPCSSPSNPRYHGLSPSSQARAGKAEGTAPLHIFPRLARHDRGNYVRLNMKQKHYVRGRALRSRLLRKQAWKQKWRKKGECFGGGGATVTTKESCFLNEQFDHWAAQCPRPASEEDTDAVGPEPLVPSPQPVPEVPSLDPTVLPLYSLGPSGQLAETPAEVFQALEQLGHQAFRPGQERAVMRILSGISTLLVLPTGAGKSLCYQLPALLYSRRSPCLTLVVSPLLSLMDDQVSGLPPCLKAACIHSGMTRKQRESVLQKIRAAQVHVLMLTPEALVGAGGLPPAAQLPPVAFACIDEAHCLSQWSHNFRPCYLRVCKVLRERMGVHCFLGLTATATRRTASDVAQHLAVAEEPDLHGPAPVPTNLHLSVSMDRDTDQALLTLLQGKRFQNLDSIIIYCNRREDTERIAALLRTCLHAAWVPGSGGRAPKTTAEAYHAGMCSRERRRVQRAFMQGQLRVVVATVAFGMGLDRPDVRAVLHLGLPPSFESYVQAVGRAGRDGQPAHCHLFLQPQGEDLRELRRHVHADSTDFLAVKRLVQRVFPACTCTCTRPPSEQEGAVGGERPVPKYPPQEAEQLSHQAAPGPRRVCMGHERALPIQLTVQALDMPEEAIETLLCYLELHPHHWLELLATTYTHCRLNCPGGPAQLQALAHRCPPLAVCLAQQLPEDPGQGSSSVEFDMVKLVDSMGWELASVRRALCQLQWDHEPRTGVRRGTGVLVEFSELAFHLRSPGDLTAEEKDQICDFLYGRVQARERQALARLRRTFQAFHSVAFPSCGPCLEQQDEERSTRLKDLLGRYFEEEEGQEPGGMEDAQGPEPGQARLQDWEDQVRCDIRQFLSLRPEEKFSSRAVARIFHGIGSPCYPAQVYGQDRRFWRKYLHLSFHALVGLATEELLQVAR
Assay: co-IP

fold change of the co-immunoprecipitated BLM signal, S-phase against G0–G1 phase: ~5 fold
B1: BLM (endogenous) (natural protein)
chain: not shown
